Measurements taken from the supplement of paper PMC10266784.

B1: library; numbered along this chain (parent)
chain: MAAAAAAAAEQQSSNGPVKKSMREKAVERRSVNKEHNSNFKAGYIPIDEDRLHKTGLRGRKGNLAICVIILLFILAVINLIITLVIWAVIRIGPNGCDSMEFHESGLLRFKQVSDMGVIHPLYKSTVGGRRNENLVITGNNQPIVFQQGTTKLSVENNKTSITSDIGMQFFDPRTQNILFSTDYETHEFHLPSGVKSLNVQKASTERITSNATSDLNIKVDGRAIVRGNEGVFIMGKTIEFHMGGNMELKAENSIILNGSVMVSTTRLPSSSSGDQLGSGDWVRYKLCMCADGTLFKVQVTSQNMGCQISDNPCGNTH

Variants of: B1
Test: SGCB cell-surface expression functional score (HA stain, bin4 vs bin1, normalised to synonymous) (log10 ratio); higher = more cell-surface SGCB (functional)
In short: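 Using lentivirus at MOI <0.1, HA-tagged, YFP-fused human beta-sarcoglycan codon-saturation libraries were put into HEK293 cells with stable alpha-, gamma- and delta-sarcoglycan expression, in duplicate transductions. YFP-positive cells were collected by sorting 72 hours later, grown 5–7 days, stained on ice with Alexa Fluor 647 anti-HA, fixed, sorted into four 5% intensity bins and amplicon-sequenced. The functional score takes the median, across codons and transductions, of the log ratio of highest-bin to lowest-bin variant frequency. Within each section, synonymous variants were scaled to mean 0, SD 0.5.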

SGCB cell-surface expression functional score (log10), by site and new letter:
L198: Y -1.67, I -0.47, C -0.88, A -1.81, Q -1.42, G -1.98, E -2.32, D -2.43, H -0.37, R -2.21, W -0.6
H190: S 0.28, D -0.59, N 0.89, V -0.28, T 0.55, L -0.13, R 0.34, Y 0.55, C -0.62, P 0.42, I -0.36, M -0.84, Q 0.16, W -0.79, K 0.07, G 0.07, A -0.38, F 0.15, E -0.09
F189: G -1.93, T -1.23, M -0.25, Q -1.04, W -1.38, L -0.46, R -2.1, C -1.67, V -1.22, I -1.15, P -0.39, N -2.42, D -1.52, Y -0.98, S -1.1, E -1.49, H -1.03, A -0.91, K -2.58
E188: F -1.65, Y -1.16, H -0.17, S -0.61, L -1.16, D -0.04, C -1.07, R -0.8, W -0.68, M -2.13, G -0.55, Q 0.29, N -0.55, I -1.93, K -0.62, V -0.11, P -0.15, A -1.13, T -0.38
S204: C -0.16, A -0.04, Y -0.38, P -0.83, F -0.03, T -0.17
K196: F -0.74, T -0.64, W -0.69, D -2.29, V -0.07, P -0.01, E -0.37, R 0.33, C -0.14, Y -1.19, N -0.02, M 0.21, H 1.37, S -0.1, A 0.53, G -0.43, Q 0.02, I -0.46, L -0.57
V195: H -1.52, W 0.45, Y -2.58, S -0.44, D -2.29, N -1.73, G -1.83, C 0.64, Q -1.76, F -1.74, A 0.11, T -0.23, M -0.5, R -1.37, P -1.1, E -0.23, L -0.39, I 0.09, K -1.88
Q201: T -0.09, V 0.47, M 1.02, P -0.23, I 0.46, L -0.33, K 0.07, F 0.62, G 0.18, N -0.7, C 0.43, R 0.39, D -0.56, H 0.31, S -0.35, Y -0.31, E 0.21, W -0.32, A 0.62
G194: N 0.05, P -0.58, E -0.09, C -0.15, R -0.07, F -0.14, W 0.23, I -1.66, H 0.27, M -1.78, Q 0.38, S 0.34, Y -1.13, K 0.01, T -0.71, D 0.64, L -1.02, A -0.67, V -1.31
S193: V 0.52, Y -0.19, F 0.83, W -1.15, I 0.78, T -0.16, L 0.22, P -0.22, A 0.18, G 0.24, R 0.17, E 1.32, H 1.59, M -0.52, K 0.33, C 0.3, N 0.79
